This is an account of results in patent EP2441771A1, “New 12alpha-hydroxysteroid dehydrogenase mutants, method for their manufacture and application thereof” (PharmaZell GmbH, priority 2010, dated 2012).

Data set [1] has as its system NC(=O)c1ccc[n+]([C@@H]2O[C@H](COP(=O)([O-])OP(=O)(O)OC[C@H]3O[C@@H](n4cnc5c(N)ncnc54)[C@H](OP(=O)(O)O)[C@@H]3O)[C@@H](O)[C@H]2O)c1. In words: Enzyme kinetics (Michaelis-Menten) in microtiter plate photometer, cell lysate. Format: biochemical, Clostridium sp. group P strain 48-50. The settings on record: other: WT; constant 10 mM Cholsäure, 2 µM to 100 µM NADP^+ (16 concentrations); nonlinear regression. From the text:
(§1) Für jede der Mutanten sowie für das Wildtyp-Enzym wurden Kinetikmessungen im Mikrotiterplattenphotometer durchgeführt, indem die Umsatzraten der Enzyme sowohl mit gleichbleibenden Substratkonzentrationen bei variierten Kofaktorkonzentrationen als auch vice versa aufgezeichnet wurden. Zur Bestimmung der spezifischen Enzymaktivität wurden die Enzymkonzentrationen im Zelllysat densitometrisch bestimmt.
(§2) Zur Ermittlung der Abhängigkeit der Substratumsatzgeschwindigkeit von der Substratkonzentration wurde eine Kofaktorkonzentration von 100 µM NADP^+ eingesetzt, während die Substratkonzentration über einen Bereich von 6 µM bis 10 mM Cholsäure mit 32 verschiedenen Konzentrationen variiert wurde.
(§3) Zur Ermittlung der Abhängigkeit der Substratumsatzgeschwindigkeit von der Kofaktorkonzentration wurde eine Substratkonzentration von 10 mM Cholsäure bezogen auf das Reaktionsvolumen eingesetzt, während die Kofaktorkonzentration über einen Bereich von 2 µM bis 100 µM NADP^+ mit 16 verschiedenen Konzentrationen beim Wildtypprotein bzw. über einen Bereich von 2 µM bis 1000 µM NADP^+ mit 24 verschiedenen Konzentrationen bei den beiden Mutanten variiert wurde (jeweils bezogen auf den Raktionsansatz).
(§4) Über das eingesetzte Volumen an Zelllysat lässt sich die volumenbezogene Enzymaktivität berechnen. Zusammen mit den bestimmten Enzymkonzentrationen lassen sich die spezifischen Enzymaktivitäten berechnen. […]

In data set [2] the test system is C[C@H](CCC(=O)O)[C@H]1CC[C@H]2[C@@H]3[C@H](O)C[C@@H]4C[C@H](O)CC[C@]4(C)[C@H]3C[C@H](O)[C@]12C. The description is as above. Format: biochemical, Clostridium sp. group P strain 48-50. The settings on record: other: WT; constant 100 µM NADP^+, 6 µM to 10 mM Cholsäure (32 concentrations); nonlinear regression.
Description: as §1, §2, §3, §4

Consider “12α-HSDH (WT), Wildtyp-Enzym, Clostridium sp. group P strain 48-50, SEQ ID NO:6 (Clostridium sp. ATCC 29733)”, for which the Km in data set [1] is 21,4 ± 2,3 µM; in data set [2], 136 ± 12 µM.
